Experimental data published in the supplement of paper PMC7877785.
± gives the uncertainty stated by the source.

Experiment: self-splicing fitness, log relative to wild type (ln ratio); higher = more splicing; Tetrahymena group I intron in knt gene, E. coli kanamycin selection, DiMSum; sequences stand for … in CUCUCU…GGAGGGAAAAGUUAUCAGGCAUGCACCUGGUAGCUAGUCUUUAAACCAAUAGAUUGCAUCGGUUUAAAAGGCAAGACCGUCAAAUUGCGGGAAAGGGGUCAACAGCCGUUCAGUACCAAGUCUCAGGGGAAACUUUGAGAUGGCCUUGCAAAGGGUAUGGUAAUAAGCUGACGGACAUGGUCCUAACCACGCAGCCAAGUCCUAAGUCAACAGAUCUUCUGUUGAUAUGGAUGCAGUUCACAGACUAAAUGUCGGUCGGGGAAGAUGUAUUCUUCUCAUAAGAUAUAGUCGGACCUCUCCUUAAUGGGAGCUAGCGGAUGAAGUGAUGCAACACUGGAGCCGCUGGGAACUAAUUUGUAUGCGAAAGUAUAUUGAUUAGUUUUGGAGUACUCGUGGUCG
Summary of the method: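 Colonies from six replicate transformations of E. coli BL21(DE3) were pooled and amplicon-sequenced on an Illumina HiSeq 2500. The library placed an intron with all eight P1ex-region nucleotides randomised inside the knt kanamycin-resistance gene on pET-22b(+), and cells grew overnight at 37°C or 30°C on LB agar with or without 25 μg/mL kanamycin (plus 100 μg/mL carbenicillin, 50 μM IPTG, 0.2% rhamnose). Fitness is the DiMSum error-weighted combination of wild-type-normalised replicate fold changes, kanamycin versus none.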

Sequence	self-splicing fitness (ln) (30 °C)	self-splicing fitness (ln) (37 °C)
GCGCAGCAAUAUUACGAUAC	-1.4 ± 0.081	-1.49 ± 0.11
UGGUAGCAAUAUUACGAACG	-0.892 ± 0.19	0.374 ± 0.22
AUUAAGCAAUAUUACGUGUC	-3.58 ± 0.21	-1.02 ± 0.16
UGAUAGCAAUAUUACGACCU	-1.09 ± 0.17	-0.0258 ± 0.18
CUAGAGCAAUAUUACGUACA	-2.59 ± 0.36	-1.64 ± 0.32
GACCAGCAAUAUUACGCGGA	-1.06 ± 0.1	-0.442 ± 0.1
AAUUAGCAAUAUUACGUCUC	-0.875 ± 0.12	-0.478 ± 0.16
ACGAAGCAAUAUUACGCAUG	-1.79 ± 0.062	-0.62 ± 0.083
GUGAAGCAAUAUUACGCUGA	-1.32 ± 0.092	-1.09 ± 0.13
GCCGAGCAAUAUUACGUCGU	-0.646 ± 0.081	-0.197 ± 0.1
UGAUAGCAAUAUUACGUAGG	-1.66 ± 0.16	-0.583 ± 0.16
CCUUAGCAAUAUUACGCGUG	-2.33 ± 0.12	-2.61 ± 0.12
UGACAGCAAUAUUACGCGGG	-2.59 ± 0.17	-1.24 ± 0.14
GGCGAGCAAUAUUACGACCA	-2.38 ± 0.39	-1.05 ± 0.42
CACAAGCAAUAUUACGGUGC	-3.25 ± 0.2	-2.72 ± 0.24
GCCAAGCAAUAUUACGUCUU	-3.28 ± 0.2	-2.38 ± 0.16
GCCAAGCAAUAUUACGUGAG	-1.17 ± 0.071	-0.535 ± 0.084
GAGAAGCAAUAUUACGUUCC	-3.57 ± 0.32	-1.65 ± 0.29
AAGAAGCAAUAUUACGGGGG	-2.79 ± 0.21	-2.09 ± 0.23
GAUAAGCAAUAUUACGUUAU	-2.81 ± 0.1	-1.63 ± 0.1

Sequence	self-splicing fitness (ln) (30 °C)	self-splicing fitness (ln) (37 °C)
GCCCAGCAAUAUUACGAAAC	-1.34 ± 0.058	-0.851 ± 0.078
UGAGAGCAAUAUUACGAAGU	-3.04 ± 0.26	-2.55 ± 0.31
UAUAAGCAAUAUUACGAUUC	-2.68 ± 0.15	-1.57 ± 0.32
AGUUAGCAAUAUUACGAUUU	0.0118 ± 0.094	0.175 ± 0.11
UGAUAGCAAUAUUACGUCGA	-1.69 ± 0.11	-0.847 ± 0.1
CCUGAGCAAUAUUACGGUUA	-2.13 ± 0.22	-2.96 ± 0.22
UACCAGCAAUAUUACGUGAC	-3.12 ± 0.13	-1.12 ± 0.14
CGGUAGCAAUAUUACGGCCU	-0.555 ± 0.12	-0.911 ± 0.12
ACUCAGCAAUAUUACGUUCC	-2.15 ± 0.22	-0.606 ± 0.2
UAUUAGCAAUAUUACGGGUG	-0.149 ± 0.069	0.0549 ± 0.098
CUGAAGCAAUAUUACGGUAG	-0.283 ± 0.054	-0.509 ± 0.061
CCUAAGCAAUAUUACGGGCG	-2.15 ± 0.11	-0.76 ± 0.1
ACAGAGCAAUAUUACGUAGA	-4.17 ± 0.37	-2.19 ± 0.21
GAUUAGCAAUAUUACGGUCC	-3.27 ± 0.39	
CGGGAGCAAUAUUACGACGA	-1.82 ± 0.36	
CCAGAGCAAUAUUACGAUUC	-4.06 ± 0.22	-2.67 ± 0.21
GCAUAGCAAUAUUACGUCGU	-3.44 ± 0.17	-1.06 ± 0.13
UGCUAGCAAUAUUACGCCAG		-2.17 ± 0.39
AGGCAGCAAUAUUACGCCCA	-0.718 ± 0.094	-0.205 ± 0.15
